Test results reported in the array DNA melting data of Ke et al..

Assay: melting temperature; melt of duplexes
Details: sodium 0.0675 M; strand 1 µM

| Substance | Tm |
| --- | --- |
| CGACGTGCTTCATGTGCTG+CAGCACATAGCGCACGTCG ((((((((...((((((((+))))))))...)))))))) | 47.4 °C |
| CGACGTGCACAATGTGCTG+CAGCACATCTGGCACGTCG ((((((((...((((((((+))))))))...)))))))) | 47.5 °C |
| CGACGTGCCAAATGTGCTG+CAGCACATGACGCACGTCG ((((((((...((((((((+))))))))...)))))))) | 47.5 °C |
| CGACGTGCTTGATGTGCTG+CAGCACATCCAGCACGTCG (((((((((.(((((((((+))))))))).))))))))) | 57.1 °C |
| CGACGTGCGGCATGTGCTG+CAGCACATAAGGCACGTCG ((((((((...((((((((+))))))))...)))))))) | 51.3 °C |
| CGACGTGCGCTATGTGCTG+CAGCACATCACGCACGTCG (((((((((..((((((((+))))))))..))))))))) | 53.3 °C |
| CGACGTGCTAAATGTGCTG+CAGCACATCGTGCACGTCG ((((((((...((((((((+))))))))...)))))))) | 44.7 °C |
| CGACGTGCACTATGTGCTG+CAGCACATTATGCACGTCG (((((((((..((((((((+))))))))..))))))))) | 46.2 °C |
| CGACGTGCAGAATGTGCTG+CAGCACATCCGGCACGTCG ((((((((.(.((((((((+)))))))).).)))))))) | 52.7 °C |
| CGACGTGCAGAATGTGCTG+CAGCACATCAAGCACGTCG ((((((((...((((((((+))))))))...)))))))) | 50.6 °C |
| CGACGTGCTGCATGTGCTG+CAGCACATTCAGCACGTCG ((((((((((.((((((((+)))))))).)))))))))) | 57 °C |
| CGACGTGCCCCATGTGCTG+CAGCACATACTGCACGTCG ((((((((...((((((((+))))))))...)))))))) | 45.9 °C |
| CGACGTGCTACATGTGCTG+CAGCACATAGGGCACGTCG ((((((((...((((((((+))))))))...)))))))) | 50.8 °C |
| CGACGTGCCGGATGTGCTG+CAGCACATTGAGCACGTCG ((((((((...((((((((+))))))))...)))))))) | 50.8 °C |
| CGACGTGCGATATGTGCTG+CAGCACATCTGGCACGTCG ((((((((.(.((((((((+)))))))).).)))))))) | 50 °C |
| CGACGTGCTTTATGTGCTG+CAGCACATGGCGCACGTCG ((((((((...((((((((+))))))))...)))))))) | 47.2 °C |
| CGACGTGCGTGATGTGCTG+CAGCACATAGGGCACGTCG ((((((((...((((((((+))))))))...)))))))) | 50.6 °C |
| CGACGTGCGTAATGTGCTG+CAGCACATTGGGCACGTCG ((((((((..(((((((((+)))))))))..)))))))) | 55 °C |

| Substance | Tm |
| --- | --- |
| CGACGTGCCGTATGTGCTG+CAGCACATACTGCACGTCG ((((((((.((((((((((+)))))))))).)))))))) | 56.9 °C |
| CGACGTGCTACATGTGCTG+CAGCACATACGGCACGTCG ((((((((...((((((((+))))))))...)))))))) | 48.8 °C |
| CGACGTGCACGATGTGCTG+CAGCACATGTAGCACGTCG ((((((((...((((((((+))))))))...)))))))) | 48.7 °C |
| CGACGTGCTTAATGTGCTG+CAGCACATATCGCACGTCG ((((((((...((((((((+))))))))...)))))))) | 48 °C |
| CGACGTGCATGATGTGCTG+CAGCACATGGAGCACGTCG ((((((((...((((((((+))))))))...)))))))) | 50.1 °C |
| CGACGTGCTTTATGTGCTG+CAGCACATCCGGCACGTCG ((((((((...((((((((+))))))))...)))))))) | 48.2 °C |
| CGACGTGCACGATGTGCTG+CAGCACATCGGGCACGTCG ((((((((.((((((((((+)))))))))).)))))))) | 63.8 °C |
| CGACGTGCATTATGTGCTG+CAGCACATCGCGCACGTCG ((((((((...((((((((+))))))))...)))))))) | 45.8 °C |
| CGACGTGCTATATGTGCTG+CAGCACATGCTGCACGTCG ((((((((...((((((((+))))))))...)))))))) | 48.1 °C |
| CGACGTGCGCAATGTGCTG+CAGCACATACAGCACGTCG ((((((((...((((((((+))))))))...)))))))) | 51.4 °C |
| CGACGTGCTAGATGTGCTG+CAGCACATTAGGCACGTCG ((((((((...((((((((+))))))))...)))))))) | 52.2 °C |
| CGACGTGCTAAATGTGCTG+CAGCACATACTGCACGTCG ((((((((...((((((((+))))))))...)))))))) | 49.7 °C |
| CGACGTGCGCGATGTGCTG+CAGCACATCAAGCACGTCG ((((((((..(((((((((+)))))))))..)))))))) | 59 °C |
| CGACGTGCTCTATGTGCTG+CAGCACATGTGGCACGTCG ((((((((...((((((((+))))))))...)))))))) | 50.4 °C |
| CGACGTGCGACATGTGCTG+CAGCACATTTGGCACGTCG ((((((((.(.((((((((+)))))))).).)))))))) | 50.6 °C |
| CGACGTGCGTAATGTGCTG+CAGCACATCGAGCACGTCG ((((((((...((((((((+))))))))...)))))))) | 53.1 °C |
| CGACGTGCTAGATGTGCTG+CAGCACATCAGGCACGTCG ((((((((..(((((((((+)))))))))..)))))))) | 56.2 °C |
| CGACGTGCATTATGTGCTG+CAGCACATATAGCACGTCG ((((((((..(((((((((+)))))))))..)))))))) | 52.3 °C |
